From the DeepSol protein solubility set come the findings set out here.

A short description of this data set: soluble on expression in E. coli; label from the status in PepcDB or PDB records.
As for “MNDYIVVKCGGSMLEQLNDVFFDCIKKLQQQYKVVIVHGGGPEIDAKLKDCNINVEKRDGLRVTPKEVMDVVQMVLCGSTNKKFVMNLQKHNLLAVGCSGCDGKLLQVQPVSEEIGYVGEVSYVETALLKGLINMNYIPVIAPIGIHDNEIYNINADTAAAGIAAALSAKELILITDVDGILHEGKLVKKTDESEIATLIEKGVITGGMIPKVQAALASLKMGVQKISIVNGTKDFTEDTGECIGMTVTRGVSIV”, the “soluble on expression in E. coli” value was “not soluble”.

On to “MNEFEDLLNSVSEVNPGDVVTAEVLTVDGEQANLVIDGTGVEAVLTLRELTNDRNADINDFVKAGDKVEVLVLRQVVGKDTDTVTFLVSKKRLEARKAWDKLVGREGDVVTVKGTRAVKGGLSVEFEGLRGFIPASMIDTRFVRNTEKFVGQQFEAKIKEIDPSENRFILSRRDVVEAAAAKAREEVFSRLAVGDIVTGTVARLTSFGAFIDLGGVDGLVHITELSHERNVSPKSVVTVGEEIQVKVLAIDEEAGRVSLSLKATTPGPWDGVEQKLAAGDVIEGKVKRLTDFGAFVEVLPGIDGLVHISQISHKRVENPKDVLSVGQDVTVKVLDVNTADERVSLSIKALEERPAQDESNGEKRQSRPRRQKRQDKRDYELPETQTGFSMADLFGDIELLEHHHHHH”, for which the “soluble on expression in E. coli” value is reported as “soluble”.

As to “MNEFETLLNSVEDVKVRDVVKGEILSVENGQATVAIVGTGVEGVLTLREITNDKDADINTFVKPGDVLDLLVIKQIVGKEAEGANVYLLSLKRLEARKAWTQLEGKEGEIVTVKVTKDVKGGLSVDYNGVRGFIPASMIDTYFVKDTKKFVGEEIEAKIIEVNASENRFILSRRAVVEAEAIEMRKEAFAQLQEGDIVEGTVSRVTNFGAFVDLGGIDGLVHVSELSHSRIKRPSDAVKPGDVVNVKILKLDPEAGRLSLSLKATQPGPWEQVEEKAPVGSTVEGTVKRLTDFGAFVELYPGVEGLVHVSQISWERVENPKDVLKVGQVVNVKVLDVKPAEERISLSIKALEEAPARPARNNDNDGEKRDRKPRAPRKAAKPSYDLPETQEGFSLADFLGEDFDINDLLEHHHHHH”, the “soluble on expression in E. coli” value is “soluble”.

Regarding “MNEFKYNIGYALSGGFIKGFAHLGIMQALHEHGIRPEILSGVSAGALAAVFYADGKEPYHIVELFEHHSFKELTTFSINKQGLLKLDSFIDFLNSNLESKTIEELKIPTIITATDLDHGRIVSFKKGKIAERLAASCCMPILFAPIRINNTYYVDGGILMNLPVSPIRKECEKVIALNVDPLVADEYSKNVVSIALRAYHFIFQANTLPQKGIADLLIESYGLEEYSNRELERAEEIFEKGYNTATELLDRLLLENGTIWR”, the “soluble on expression in E. coli” value is listed as “not soluble”.

On to “MNEFTAVKELSEKLLEDYKTESSFFFASPTRTILAEGEFTTVKHHEIESFPELVQAVLRNAKQAGNPNPIVVGALPFDRRKEVQLIVPEYSRISERLQLDPTNHLEINRNLTFEMTPVPDHEVYMKGVKQGIEKIKDGDLKKIVLSRSLDVKSSGKIDKQKLLRELAEHNKHGYTFAVNLPKDENENSKTLIGASPELLVSRHGMQVISNPLAGSRPRSDDPVEDKRRAEELLSSPKDLHEHAVVVEAVAAALRPYCHTLYVPEKPSVIHSEAMWHLSTEVKGELKNPNTSSLELAIALHPTPAVCGTPMEEAREAIQKIEPFDREFFTGMLGWSDLNGDGEWIVTIRCAEVQENTLRLYAGAGVVAESKPEDELAETSAKFQTMLKALGLNDSSLNEK”, for which the “soluble on expression in E. coli” value was “not soluble”.

Regarding “MNELVSAFHIERANGKVNGDVVAVEPAKTVNQDAADDEVEIKLNVDNYQMLRSDSQGSLNSHGRSNSRLGRLFRSKHEMKKRETRADENRGEIEIQIDFDDLVNQLKIALIRCRDLMTFDKKDQCNPYVSVKLVALDGNKEVFKKKTPTAKNTRHPHFDNHVEIDINPSDLLNHKVVINVKDDTNYGTFVAKPVLGCLEIRLDSLMNRQLSQRWIPLSVERK”, the “soluble on expression in E. coli” value is recorded as “not soluble”.

With “MNEQGVIFNSNGKQLVGIEHLPEPIHQGQTNKGVIIVVGGPQTRVGSHRLFVHLARALAKQRIVVFCFDYSGAGDSEGTVSTFTDIQDDIEAAFTPLSSAIVILLSWLDGAYAMLHRPFCFTSMSALNKRR”, the “soluble on expression in E. coli” value is reported as “not soluble”.

On to “MNEQYSALRSNVSMLGKVLGETIKDALGEHILERVETIRKLSKSSRAGNDANRQELLTTLQNLSNDELLPVARAFSQFLNLANTAEQYHSISPKGEAASNPEVIARTLRKLKNQPELSEDTIKKAVESLSLELVLTAHPTEITRRTLIHKMVEVNACLKQLDNKDIADYEHNQLMRRLRQLIAQSWHTDEIRKLRPSPVDEAKWGFAVVENSLWQGVPNYLRELNEQLEENLGYKLPVEFVPVRFTSWMGGDRDGNPNVTADITRHVLLLSRWKATDLFLKDIQVLVSELSMVEATPELLALVGEEGAAEPYRYLMKNLRSRLMATQAWLEARLKGEELPKPEGLLTQNEELWEPLYACYQSLQACGMGIIANGDLLDTLRRVKCFGVPLVRIDIRQESTRHTEALGELTRYLGIGDYESWSEADKQAFLIRELNSKRPLLPRNWQPSAETREVLDTCQVIAEAPQGSIAAYVISMAKTPSDVLAVHLLLKEAGIGFAMPVAPLFETLDDLNNANDVMTQLLNIDWYRGLIQGKQMVMIGYSDSAKDAGVMAASWAQYQAQDALIKTCEKAGIELTLFHGRGGSIGRGGAPAHAALLSQPPGSLKGGLRVTEQGEMIRFKYGLPEITVSSLSLYTGAILEANLLPPPEPKESWRRIMDELSVISCDVYRGYVRENKDFVPYFRSATPEQELGKLPLGSRPAKRRPTGGVESLRAIPWIFAWTQNRLMLPAWLGAGTALQKVVEDGKQSELEAMCRDWPFFSTRLGMLEMVFAKADLWLAEYYDQRLVDKALWPLGKELRNLQEEDIKVVLAIANDSHLMADLPWIAESIQLRNIYTDPLNVLQAELLHRSRQAEKEGQEPDPRVEQALMVTIAGIAAGMRNTG”, for which the “soluble on expression in E. coli” value is “soluble”.

“MNERFGELNFVTPDACSLRRMANKYYPYTMRQSFPLWTSISKEVQIVEGRELPVMQDLADRHPEINKMYGSAEELWENLKTFIDFQGNLQYFEVNPCVSYNHRFFIHKDISSDKKFLYKNDIFLSIQDNLIVRKPVLRNRVSLFMLAYFLKYHEKKLSTSCEFVEYVEKDFDNLINELNDFLLDFIKKPKPVANDANFDWKKVFTRLRNMLPEPMTEEEMSPLADVLKRYFETYPRAQAVGVLNMIEQFCKMMIPRLQKIMDKRPEWFLPNRTKNAKPVLRYFIDGKKPFVMVPEYEIATKEKFQYTDSSFMATGIDTIDLSDISLVASSNGGSLSDFYCIRFNIERTKHTARPIRTTTGTFCKLSADVLLEHLRDLFFGSRVFQSPTRSMFNGYVISMNEIFNSNAQGIYFLEESIIEFVEKISSGLFGTPESKTIRDVPPKGFTVGDVHSELKYLGLLEFFPNISNYAEIAYKKVVAEKKMKILRTCDMFDAVEICMMLAVFNGYPKLAQFLHSQHACHRIQGLQCKKCELEKKHPMMNSWLYPYMEVEEDEKVDSTSSDDEEKRTSTSELAGNGRKSEQKKLAVKDPEPSTMEKETRKSKCCESTKDQLKAFQEQVEALKKEMKELETAMSKNLKN”: the “soluble on expression in E. coli” value is reported as “not soluble”.

Consider “MNERKKSIDELLSDLGVLEEAPVEVELKESGTPEAQGDPRAFLEEFLGGLLLLLDPGHRLEVRVEGETLKAEVKGGDLGRFIGKEGRTLRAVEHLARVVLARRFGTGYRLVLDAAGYRSRAEARIRRLAEEAALTVAMTGEPLHLPPMPPGERRIVHMLLKNHPRVTTESQGEGEERHVVVYPRREAQG”, for which the “soluble on expression in E. coli” value is reported as “soluble”.

For the sequence “MNESGFLIDTHAHIDGHDFAADFDAMLSRAWEAGLSHIVTVGADLESSRAAVALAGRHERIWCAVGIHPHDAGRVTDRCYDEIRTLAQGNPKVAAIGEIGLDFFRDRSPRDEQEQVFRRFIRLARELALPIVVHDRDAHERVMAILREEKARDVGGVLHCFSGDLAMARECVDMGFLISIPGTVTYPSNEALREVVRGVKIEHLLVETDCPYLTPVPHRGKRNEPAYVRLTAEKVAELKGLSLEDVGRITSLNARRLFGIGESDQAARIAYRIRNSLYLNITNRCSNRCSFCAKFDDYTVKGHHLRLDHEPDSAEVLAAVGEPGPVDEIVFCGFGEPMLRLDLIVEVARELKKRGFRIRINTDGQANLVHGRNVLPELQGLVDCISVSLNAADADTYARLCNTPFGTNGFNGICRFLEEARLYIPTVVATAVTVPGIDVAAVRALAESLGVEFREREFAEVGLEHHHHHH”, the “soluble on expression in E. coli” value is listed as “soluble”.

As for “MNESVDTDEATTPLVSAIIPTYGRNERLSSAIQSVLEQTYDNIELFVVDDASPTPVRETLDSFDPTVENSFRILRHDENQGANAARNTGIRASDGRYVAFLDDDDQWDETKITKQVQAFQESDSETGVVYTGVRKDGPEGTTVSTPVASGDVMKDLLTGTNFGQFSSVMVDTTVIETAGLPDERLPAWQDREWFFRLAQHTHFRPVRETLTYRQTGLPGSITKKYEQKRDVAYPMLISKHDWVAAEYGIYYERMFKATMRRSLARSAVRADRYKEARKYFLLSALANPLYWPVYPHLFASLGGKWSYESIASLRQQVTNGPASGT”, the “soluble on expression in E. coli” value is on record as “not soluble”.

“MNETEFYAYHIVTRKKMHIGQMIPFNKNQHNTLYHFFFEREQLNANGEDGIQILNNHYKNDELHINNENAKVVISYMDQTIRAARETIVEMVRLQEFPEYPSRLSCLYAAKSYEDALKWKALFDSYNREVLQIVKLRVIGSSFEGDGNLLPKEDGIPFSQKIEQARKYWKGNIRNELPELLINGEIEVVEIIDDFSSIHI”: the “soluble on expression in E. coli” value is given as “soluble”.

Take “MNFFKRKFSFSEDEGEPMDDVNSGPPSSFSFQSIANKVSNTISAPTSPAKSRESLAAALERSLNHDRSRGEPLMKDAKVLLVIDSHHVDWSKYFRNHTEYAIRVEQGDIDELDVMCTEKNCTVELNTPGKDVRTFTPSAVFLGAGATRCAQLKTITRAFIAAHIPFLNSHTSAVAFLDRNNLKKQLKKITLSDGASIPMLPIVHYPHFHKFHQSQSSTYPMVVSVNEGFQGIGKIKVNNHEELCDVEGMLQIMSKGDTEVEVQPFVDAKYDLHIQKIGHEYKTFIRRGICKHWKSNVGSSVLEQISTCERHKKYLKAITDHVGPMHICSIDILVSKEGREFVHDVNDVIAYFGESAEDDRRAASLLLRALVAPRITSPIAAEPPATSPTTSAVTNGHGNHGPAPAVPTRRLPPHPSSSSAAPPRGHMSDKVESRHKDHYDPPPQIPRTGSRESVSYVDDTMGQLKRTFAGFFGE”: the “soluble on expression in E. coli” value is listed as “not soluble”.

For the sequence “MNFNKLKFGATIGIIGGGQLGKMMAQSAQKMGYKVVVLDPSEDCPCRYVAHEFIQAKYDDEKALNQLGQKCDVITYEFENISAQQLKLLCEKYNIPQGYQAIQLLQDRLTEKETLKSAGTKVVPFISVKESTDIDKAIETLGYPFIVKTRFGGYDGKGQVLINNEKDLQEGFKLIETSECVAEKYLNIKKEVSLTVTRGNNNQITFFPLQENEHRNQILFKTIVPARIDKTAEAKEQVNKIIQSIHFIGTFTVEFFIDSNNQLYVNEIAPRPHNSGHYSIEACDYSQFDTHILAVTGQSLPNSIELLKPAVMMNLLGKDLDLLENEFNEHPEWHLHIYGKSGRKDSRKMGHMTVLTNDVNQTEQDMYAKFEGSN”, the “soluble on expression in E. coli” value was “soluble”.

On to “MNGGEKLESIPIDLIIEIHSRLPAESVARFRCVSKLWGSMFRRPYFTELFLTRSRARPRLLFVLQHNRKWSFSVFSSPQNQNIYEKPSFVVADFHMKFSVSTFPDFHSCSGLIHFSMMKGAYTVPVVCNPRTGQYAVLPKLTRTRYENSYSFVGYDPIEKQIKVLFMSDPDSGDDHRILTLGTTEKMLGRKIECSLTHNILSNEGVCINGVLYYKASRIVESSSDDDTSDDDDDDHERSDVIVCFDFRCEKFEFIVICFYGQLINSVQLSLKQKSHQKLDLII”, for which the “soluble on expression in E. coli” value was “soluble”.

For the sequence “MNGKEIGEKNSKKYSFEVDSRSVYKCVQCGTCRSVCPVFDVVGWESANTRGRMLIIKSLLEGRPPSEDVLPSLASCTTCGICAAKCPAGANPPEVVEAARAQLVKCGVTTEAQLEHHHHHH”, the “soluble on expression in E. coli” value is reported as “not soluble”.
